{"source": "the supplement of paper PMC9170038", "key": {"MS2 coat protein [1]": {"test_system": "MS2 coat protein", "experiment": "apparent KD of MS2 coat protein, switch ON state; designed switch direction (-1 OFF switch, 1 ON switch): -1; higher = weaker reporter binding", "conditions": "FMN input: 0 or 200 uM; Eterna round: R93 (includes R88 designs)", "in_short": "(§1)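 The buffer was 100 mM Tris-HCl pH 7.5 with 80 mM KCl and 4 mM MgCl2, used without or with constant ligand. In it, RNA switches transcribed on-chip from Illumina sequencing clusters were titrated with SNAP-549-labelled MS2 coat protein in twofold steps from 0.7 or 1.5 nM to 3 µM. Apparent KD for each design is the median of its normalised cluster binding-curve fits.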"}, "MS2 coat protein [2]": {"test_system": "MS2 coat protein", "experiment": "apparent KD of MS2 coat protein, switch OFF state (with FMN for OFF switches, without FMN for ON switches); designed switch direction (-1 OFF switch, 1 ON switch): -1; higher = weaker reporter binding", "conditions": "FMN input: 0 or 200 uM; Eterna round: R93 (includes R88 designs)", "in_short": "as §1"}}, "data": [{"sequence": "AGCUAGCGAGGAUAUACGAACAUGUCAAAAGACGUGAAGGGACAUGAGGAUCACCCAUGUAGAAGGUGCUAGCA [JL 74% mod 7]", "values": [{"measurement": "apparent KD of MS2 coat protein", "setting": "MS2 coat protein [1]", "value": 31.8, "unit": "nM"}, {"measurement": "apparent KD of MS2 coat protein", "setting": "MS2 coat protein [2]", "value": 70.3, "unit": "nM"}]}, {"sequence": "AGCUAGUCAGGAUAUACGAAAACGAACGAAGCUGAGAAGGGACAUGAGGAUCACCCAUGUAGAAGGGACUAGCA [Diamond 33]", "values": [{"measurement": "apparent KD of MS2 coat protein", "setting": "MS2 coat protein [1]", "value": 36.4, "unit": "nM"}, {"measurement": "apparent KD of MS2 coat protein", "setting": "MS2 coat protein [2]", "value": 107, "unit": "nM"}]}, {"sequence": "AGCUAGUCAGGAUAUACGAACAUGUAAAAAGACGUGAAGGGACAUGAGGAUCACCCAUGUAGAAGGGACUAGAA [74%, Web mod - With 2 less C's]", "values": [{"measurement": "apparent KD of MS2 coat protein", "setting": "MS2 coat protein [1]", "value": 46.7, "unit": "nM"}, {"measurement": "apparent KD of MS2 coat protein", "setting": "MS2 coat protein [2]", "value": 91.3, "unit": "nM"}]}, {"sequence": "AGCUAGUCAGGAUAUACGAACAUGUCAAAAGACGUGAAGGGACAUGAGGAUCACCCAUGUAGAAGGGACUAGCA [WEB mod]", "values": [{"measurement": "apparent KD of MS2 coat protein", "setting": "MS2 coat protein [1]", "value": 35.4, "unit": "nM"}, {"measurement": "apparent KD of MS2 coat protein", "setting": "MS2 coat protein [2]", "value": 138, "unit": "nM"}]}, {"sequence": "AGCUAGUCAGGAUAUACGAACAUGUCAAAAGACGUGAAGGGACAUGAGGAUCACCCAUGUAGAAGGGACUAGCU [salish99-Ex2-20]", "values": [{"measurement": "apparent KD of MS2 coat protein", "setting": "MS2 coat protein [1]", "value": 28.8, "unit": "nM"}, {"measurement": "apparent KD of MS2 coat protein", "setting": "MS2 coat protein [2]", "value": 106, "unit": "nM"}]}, {"sequence": "AGCUAGUCAGGAUAUACGAACAUGUCAAAAGACGUGAAUAAACAUGAGGAUCACCCAUGUAGAAGGGACUAGCA [Mat - Exclusion 2 - JL-Eli mod - D53]", "values": [{"measurement": "apparent KD of MS2 coat protein", "setting": "MS2 coat protein [1]", "value": 18.3, "unit": "nM"}, {"measurement": "apparent KD of MS2 coat protein", "setting": "MS2 coat protein [2]", "value": 14.8, "unit": "nM"}]}, {"sequence": "AGCUAGUCAGGAUAUACGAACAUGUCAGAAGACGUGAAGGGACAUGAGGAUCACCCAUGUAGAAGGGACUAGCG [74%, Web mod - With 2 more G's]", "values": [{"measurement": "apparent KD of MS2 coat protein", "setting": "MS2 coat protein [1]", "value": 34.9, "unit": "nM"}, {"measurement": "apparent KD of MS2 coat protein", "setting": "MS2 coat protein [2]", "value": 117, "unit": "nM"}]}, {"sequence": "AGCUAGUCAGGAUAUACGAGAAUGUCAAAAGACGUGAAGGGACAUGAGGAUCACCCAUGUAGAAGGGACUAGCA [Diamond 23]", "values": [{"measurement": "apparent KD of MS2 coat protein", "setting": "MS2 coat protein [1]", "value": 39.3, "unit": "nM"}, {"measurement": "apparent KD of MS2 coat protein", "setting": "MS2 coat protein [2]", "value": 208, "unit": "nM"}]}, {"sequence": "AGCUAGUCAGGAUAUACGGACAUGUCAGGAGACGUGAAGGGACAUGAGGAUCACCCAUGUAGAAGGGACUAGCG [74%, Web mod - With 4 more G's]", "values": [{"measurement": "apparent KD of MS2 coat protein", "setting": "MS2 coat protein [1]", "value": 35.5, "unit": "nM"}, {"measurement": "apparent KD of MS2 coat protein", "setting": "MS2 coat protein [2]", "value": 106, "unit": "nM"}]}, {"sequence": "AGCUAGUGAGGAUAUACGAACAUGUCAAAAGACGUGAAAAAACAUGAGGAUCACCCAUGUAGAAGGCACUAGCA [Mat - Exclusion 2 - JL-Eli mod - D56]", "values": [{"measurement": "apparent KD of MS2 coat protein", "setting": "MS2 coat protein [1]", "value": 19.2, "unit": "nM"}, {"measurement": "apparent KD of MS2 coat protein", "setting": "MS2 coat protein [2]", "value": 16.9, "unit": "nM"}]}, {"sequence": "AGCUAGUGAGGAUAUACGAACAUGUCAACGGACUGUAAGGGACAUGAGGAUCACCCAUGUAGAAGGCACUAGCA [Diamond 57]", "values": [{"measurement": "apparent KD of MS2 coat protein", "setting": "MS2 coat protein [1]", "value": 67.2, "unit": "nM"}, {"measurement": "apparent KD of MS2 coat protein", "setting": "MS2 coat protein [2]", "value": 165, "unit": "nM"}]}, {"sequence": "AGGAAACAUGAGGAUCACCCAUGUCAGGAUAUAGAAAAGAAAAGAAAAGAAAGAAGAACUAGAAGGGACAAGAA [Scorpion I]", "values": [{"measurement": "apparent KD of MS2 coat protein", "setting": "MS2 coat protein [1]", "value": 27.7, "unit": "nM"}, {"measurement": "apparent KD of MS2 coat protein", "setting": "MS2 coat protein [2]", "value": 26.3, "unit": "nM"}]}, {"sequence": "AGGAAACAUGAGGAUCACCCAUGUCAGGAUAUAGGAAAGAAAAGAAAAGAAAGAAGAAUUAGAAGGGACAAGAA [King Scorpion]", "values": [{"measurement": "apparent KD of MS2 coat protein", "setting": "MS2 coat protein [1]", "value": 23.5, "unit": "nM"}, {"measurement": "apparent KD of MS2 coat protein", "setting": "MS2 coat protein [2]", "value": 16.5, "unit": "nM"}]}, {"sequence": "AGGAAACAUGAGGAUCACCCAUGUGAGGAUAUAGAAAAGAAAAGAAAAGAAAGAAGAACUAGAAGGCACAAGAA [Neheb]", "values": [{"measurement": "apparent KD of MS2 coat protein", "setting": "MS2 coat protein [1]", "value": 31.2, "unit": "nM"}, {"measurement": "apparent KD of MS2 coat protein", "setting": "MS2 coat protein [2]", "value": 28.8, "unit": "nM"}]}, {"sequence": "AGGAUGUCAGGAUAUGUGUAAAGAAUAAAACAAAUAACAACACAGAAGGGACAUGAGGAUCACCCAUGUUACCA [May 37]", "values": [{"measurement": "apparent KD of MS2 coat protein", "setting": "MS2 coat protein [1]", "value": 19.9, "unit": "nM"}, {"measurement": "apparent KD of MS2 coat protein", "setting": "MS2 coat protein [2]", "value": 20.9, "unit": "nM"}]}, {"sequence": "AGGGAGUAAGGAUAUGAGAAAUAAAAAGAAGGAAAAAAAGAUCAGAAGGUACAUGAGGAUCACCCAUGUGGGAA [milkweed 10]", "values": [{"measurement": "apparent KD of MS2 coat protein", "setting": "MS2 coat protein [1]", "value": 43.1, "unit": "nM"}, {"measurement": "apparent KD of MS2 coat protein", "setting": "MS2 coat protein [2]", "value": 39.9, "unit": "nM"}]}, {"sequence": "AGGGAGUGAGGAUAUGCGAAAGAAAAAGAAGGAAAAAAAGAGCAGAAGGUACAUGAGGAUCACCCAUGUAAAAA [milkweed 8]", "values": [{"measurement": "apparent KD of MS2 coat protein", "setting": "MS2 coat protein [1]", "value": 27.9, "unit": "nM"}, {"measurement": "apparent KD of MS2 coat protein", "setting": "MS2 coat protein [2]", "value": 16.9, "unit": "nM"}]}, {"sequence": "AGUAUGCGAGGAUAUACAUGAGGAUCACCCAUGUGAGAGAUAAAAGUGAGAAAGAAAUGUAGAAGGCGCGUACA [JL Lego Mod 22]", "values": [{"measurement": "apparent KD of MS2 coat protein", "setting": "MS2 coat protein [1]", "value": 98.8, "unit": "nM"}, {"measurement": "apparent KD of MS2 coat protein", "setting": "MS2 coat protein [2]", "value": 43, "unit": "nM"}]}, {"sequence": "AGUAUGCGAGGAUAUACAUGAGGAUCACCCAUGUGAGAGAUAAAAGUGAGAAAGACAAGUAGAAGGCGCGUACA [JL Lego Mod 23]", "values": [{"measurement": "apparent KD of MS2 coat protein", "setting": "MS2 coat protein [1]", "value": 54.8, "unit": "nM"}, {"measurement": "apparent KD of MS2 coat protein", "setting": "MS2 coat protein [2]", "value": 354, "unit": "nM"}]}]}
